Assay [1] has as its target T1, full length human KLRG1 expressed on CHOK1 cells (CHOK1-hKLRG1) (human, UniProt Q96E93 1-195).
T1 construct: whole, on cells; also called killer cell lectin-like receptor G1
T1 sequence (looked up): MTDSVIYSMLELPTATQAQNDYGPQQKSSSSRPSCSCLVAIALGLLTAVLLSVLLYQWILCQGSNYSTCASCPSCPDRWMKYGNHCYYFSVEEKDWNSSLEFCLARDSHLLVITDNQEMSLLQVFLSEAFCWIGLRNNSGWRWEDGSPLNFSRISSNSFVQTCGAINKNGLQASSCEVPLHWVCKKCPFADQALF
Nature of the assay: FACS competition on CHOK1-hKLRG1 cells; inhibition of E-cadherin-ECD-FC-biotin (0.3 uM) binding (Example 7). The protocol: CHOK1-hKLRG1 expressing cells were cultured and incubated with varying concentrations of PA015, HG1N01, HG1N02 or control human IgG1. Recombinant human E-cadherin-ECD-FC-biotin at 0.3 μM was then added and incubated. Cells were centrifuged, the supernatant discarded, and washed with an incubation buffer (HBSS+2% FBS+10 mM Ca2+). Cells were resuspended and incubated with Streptavidin-Alexa 488, washed, resuspended, and underwent FACS study.

For assay [2], the target named is T1, full length human KLRG1 expressed on …. Nature of the assay: FACS competition on CHOK1-hKLRG1 cells; inhibition of E-cadherin-ECD-FC-biotin (0.3 uM) binding. The protocol: The ability of monoclonal antibodies to inhibit E-cadherin/KLRG1 binding is measured by FACS.
CHOK1-hKLRG1 expressing cells were cultured and incubated with varying concentrations of either PA015 or control human IgG1. Recombinant human E-cadherin-ECD-FC-biotin at 0.3 μM was then added and incubated. Cells were then centrifuged, the supernatant discarded, and washed with an incubation buffer (HBSS+2% FBS+10 mM Ca2+). Cells were resuspended and incubated with Streptavidin-Alexa 488, washed, resuspended, and underwent FACS study.

For assay [3] the target is unchanged. The assay is described as follows: FACS on CHOK1-hKLRG1 cells, anti-human IgG-Alexa 488 detection. The protocol: Binding of anti-KLRG1 monoclonal antibodies to cell expressed human and cynomolgus-KLRG1 is carried out by FACS. Chinese hamster ovary (CHO) cells are stably transfected to express full length human KLRG1 (CHOK1-hKLRG1)). CHOK1-hKLRG1 expressing cells were cultured and incubated with varying concentrations of either PA015 or control human IgG1. Cells were then centrifuged, the supernatant discarded, and washed with an incubation buffer (HBSS+2% FBS+10 mM Ca2+). Cells were resuspended and incubated with anti-human IgG-Alexa 488, washed, resuspended, and underwent FACS study.

B1: PA015 (antibody, human IgG1, kappa, V domains shown)
VH: QVTLRESGPALVKPTQTLTLTCTVSGFSLSTFGMGVGWIRQPPGKALEWLAHIWWDDDKWYELALKSRLTISKDTSKNQVVLTITNMDPVDTATYYCARVIYYGSRSAYYSMDYWGQGTTVTVSS
VL: DVVMTQTPLSLSVTPGQPASISCKSSQSIVHSNAHTYLEWYLQKPGQSPQLLIYKVSNRFSGVPDRFSGSGSGTDFTLKISRVEAEDVGVYYCFQGSHVPVTFGQGTKLEIKR
notes: also called PA015 antibody; anti-KLRG1 antibody PA015
As a reminder, the IC50 is the midpoint of a concentration-inhibition curve. Higher therefore signals a need for much substance. The EC50 is the midpoint of the concentration-response curve. Read a high EC50 as a need for much substance. As for B1, the IC50 was 5.3 nM in assay [1] and 8.05 nM in assay [2]. Moreover, in assay [3], the EC50 amounted to 1.33 nM.

Values taken from US20240174754A1 (ABCURO, published 2024).
